In patent US10920254B2, “Methods and materials for producing 5 and 7-carbon monomers” (INVISTA North America S.á.r.l., priority 2015, dated 2021):

Key:
Type in all cases: biochemical
[1] = ω-transaminase enzyme activity assay, reverse direction (7-aminoheptanoate to pimelate semialdehyde), L-alanine formation by RP-HPLC; settings: cell free extract; 10 mM 7-aminoheptanoate, 10 mM pyruvate, pH 7.5, 25° C., 4 h; FIG. 13
Procedure: (§1) A nucleotide sequence encoding an N-terminal His-tag was added to the nucleic acid sequences from Chromobacterium violaceum, Pseudomonas syringae, Rhodobacter sphaeroides, and Vibrio fluvialis encoding the ω-transaminases of SEQ ID NOs: 7, 9, 10, and 12, respectively (see FIGS. 6E-6F) such that N-terminal HIS tagged ω-transaminases could be produced. Each of the resulting modified genes was cloned into a pET21a expression vector under control of the T7 promoter and each expression vector was transformed into a BL21[DE3] E. coli host. The resulting recombinant E. coli strains were cultivated at 37° C. in a 250 mL shake flask culture containing 50 mL LB media and antibiotic selection pressure, with shaking at 230 rpm. Each culture was induced overnight at 16° C. using 1 mM IPTG.
(§2) The pellet from each induced shake flask culture was harvested via centrifugation. Each pellet was resuspended and lysed via sonication. The cell debris was separated from the supernatant via centrifugation and the cell free extract was used immediately in enzyme activity assays.
Enzyme activity assays in the reverse direction (i.e., 7-aminoheptanoate to pimelate semialdehyde) were performed in a buffer composed of a final concentration of 50 mM HEPES buffer (pH=7.5), 10 mM 7-aminoheptanoate, 10 mM pyruvate, and 100 μM pyridoxyl 5′ phosphate. Each enzyme activity assay reaction was initiated by adding cell free extract of the ω-transaminase gene product or the empty vector control to the assay buffer containing the 7-aminoheptanoate and incubated at 25° C. for 4 h, with shaking at 250 rpm. The formation of L-alanine from pyruvate was quantified via RP-HPLC.

[2] = ω-transaminase enzyme activity assay, forward direction (pimelate semialdehyde to 7-aminoheptanoate), pyruvate formation by RP-HPLC; settings: for acceptance of pimelate semialdehyde as substrate (conversion of L-alanine to pyruvate), confirmed against the empty vector control: cell free extract, 10 mM pimelate semialdehyde, 10 mM L-alanine, pH 7.5, 25° C., 4 h, FIG. 14; for reversibility of the ω-transaminase activity: pimelate semialdehyde accepted, 7-aminoheptanoate synthesized: conclusion from forward and reverse direction assays of Example 1
Procedure: as §1, §2
Enzyme activity in the forward direction (i.e., pimelate semialdehyde to 7-aminoheptanoate) was confirmed for the transaminases of SEQ ID NO: 9, SEQ ID NO: 10, and SEQ ID NO: 12. Enzyme activity assays were performed in a buffer composed of a final concentration of 50 mM HEPES buffer (pH=7.5), 10 mM pimelate semialdehyde, 10 mM L-alanine, and 100 μM pyridoxyl 5′ phosphate. Each enzyme activity assay reaction was initiated by adding a cell free extract of the ω-transaminase gene product or the empty vector control to the assay buffer containing the pimelate semialdehyde and incubated at 25° C. for 4 h, with shaking at 250 rpm. The formation of pyruvate was quantified via RP-HPLC.

[3] = ω-transaminase enzyme activity assay (7-aminoheptanol to 7-oxoheptanol), L-alanine formation by RP-HPLC; settings: for acceptance of 7-aminoheptanol as substrate (conversion of pyruvate to L-alanine), confirmed against the empty vector control: cell free extract, 10 mM 7-aminoheptanol, 10 mM pyruvate, pH 7.5, 25° C., 4 h, FIG. 17; for acceptance of 7-oxoheptanol as substrate forming 7-aminoheptanol: concluded from the reversibility of the ω-transaminase activity (Example 1)
Procedure: A nucleotide sequence encoding an N-terminal His-tag was added to the Chromobacterium violaceum, Pseudomonas syringae, and Rhodobacter sphaeroides nucleic acids encoding the ω-transaminases of SEQ ID NOs: 7, 9 and 10, respectively (see FIGS. 6E-6F), such that N-terminal HIS tagged ω-transaminases could be produced. The modified genes were cloned into a pET21a expression vector under the T7 promoter. Each expression vector was transformed into a BL21[DE3] E. coli host. Each resulting recombinant E. coli strain was cultivated at 37° C. in a 250 mL shake flask culture containing 50 mL LB media and antibiotic selection pressure, with shaking at 230 rpm. Each culture was induced overnight at 16° C. using 1 mM IPTG.
as §2
Enzyme activity assays in the reverse direction (i.e., 7-aminoheptanol to 7-oxoheptanol) were performed in a buffer composed of a final concentration of 50 mM HEPES buffer (pH=7.5), 10 mM 7-aminoheptanol, 10 mM pyruvate, and 100 μM pyridoxyl 5′ phosphate. Each enzyme activity assay reaction was initiated by adding cell free extract of the ω-transaminase gene product or the empty vector control to the assay buffer containing the 7-aminoheptanol and then incubated at 25° C. for 4 h, with shaking at 250 rpm. The formation of L-alanine was quantified via RP-HPLC.

[4] = carboxylate reductase enzyme activity assay (N7-acetyl-7-aminoheptanoate to N7-acetyl-7-aminoheptanal), NADPH consumption at 340 nm; settings: purified enzyme enhanced by gene product of sfp; 2 mM N7-acetyl-7-aminoheptanoate, 1 mM ATP, 1 mM NADPH, pH 7.5, room temperature, 20 min; FIG. 10
Procedure: The activity of each of the N-terminal His-tagged carboxylate reductases of SEQ ID NOs: 3, 5, and 6 (see Examples 2 and 3, and FIG. 6B, FIGS. 6D-6E) for converting N7-acetyl-7-aminoheptanoate to N7-acetyl-7-aminoheptanal was assayed in triplicate in a buffer composed of a final concentration of 50 mM HEPES buffer (pH=7.5), 2 mM N7-acetyl-7-aminoheptanoate, 10 mM MgCl2, 1 mM ATP, and 1 mM NADPH. The assays were initiated by adding purified carboxylate reductase and phosphopantetheine transferase or the empty vector control to the assay buffer containing the N7-acetyl-7-aminoheptanoate then incubated at room temperature for 20 min. The consumption of NADPH was monitored by absorbance at 340 nm.

Row | Molecule | acceptance of 7-aminoheptanoate as substrate (conversion of pyruvate to L-alanine), confirmed against the empty vector control [1] | acceptance of pimelate semialdehyde as substrate (conversion of L-alanine to pyruvate), confirmed against the empty vector control [2] | reversibility of the ω-transaminase activity: pimelate semialdehyde accepted, 7-aminoheptanoate synthesized [2] | acceptance of 7-aminoheptanol as substrate (conversion of pyruvate to L-alanine), confirmed against the empty vector control [3] | acceptance of 7-oxoheptanol as substrate forming 7-aminoheptanol [3] | acceptance of N7-acetyl-7-aminoheptanoate as substrate (NADPH consumption), confirmed against the empty vector control [4]
1 | SEQ ID NO: 10: Rhodobacter sphaeroides ω-transaminase, N-terminal HIS tagged | accepted 7-aminoheptanote as substrate | accepted pimelate semialdehyde as substrate | accepted pimelate semialdehyde as substrate and synthesized 7-aminoheptanoate as a reaction product | accepted 7-aminoheptanol as substrate | accept 7-oxoheptanol as substrate and form 7-aminoheptanol | –
2 | SEQ ID NO: 7: Chromobacterium violaceum ω-transaminase, N-terminal HIS tagged (protein, listed as Chromobacterium violaceum, N-terminal His tag, Chromobacterium violaceum ω-transaminase, N-terminal HIS tagged) MQKQRTTSQWRELDAAHHLHPFTDTASLNQAGARVMTRGEGVYLWDSEGNKIIDGMAGLWCVNVGYGRKDFAEAARRQMEELPFYNTFFKTTHPAVVELSSLLAEVTPAGFDRVFYTNSGSESVDTMIRMVRRYWDVQGKPEKKTLIGRWNGYHGSTIGGASLGGMKYMHEQGDLPIPGMAHIEQPWWYKHGKDMTPDEFGVVAARWLEEKILEIGADKVAAFVGEPIQGAGGVIVPPATYWPEIERICRKYDVLLVADEVICGFGRTGEWFGHQHFGFQPDLFTAAKGLSSGYLPIGAVFVGKRVAEGLIAGGDFNHGFTYSGHPVCAAVAHANVAALRDEGIVQRVKDDIGPYMQKRWRETFSRFEHVDDVRGVGMVQAFTLVKNKAKRELFPDFGEIGTLCRDIFFRNNLIMRACGDHIVSAPPLVMTRAEVDEMLAVAERCLEEFEQTLKARGLA | accepted 7-aminoheptanote as substrate | – | accepted pimelate semialdehyde as substrate and synthesized 7-aminoheptanoate as a reaction product | accepted 7-aminoheptanol as substrate | accept 7-oxoheptanol as substrate and form 7-aminoheptanol | –
3 | SEQ ID NO: 9: Pseudomonas syringae ω-transaminase, N-terminal HIS tagged (protein, listed as Pseudomonas syringae, N-terminal His tag, Pseudomonas syringae ω-transaminase, N-terminal HIS tagged) MSANNPQTLEWQALSSEHHLAPFSDYKQLKEKGPRIITRAEGVYLWDSEGNKILDGMSGLWCVAIGYGREELADAASKQMRELPYYNLFFQTAHPPVLELAKAISDIAPEGMNHVFFTGSGSEGNDTMLRMVRHYWALKGQPNKKTIISRVNGYHGSTVAGASLGGMTYMHEQGDLPIPGVVHIPQPYWFGEGGDMTPDEFGIWAAEQLEKKILELGVENVGAFIAEPIQGAGGVIVPPDSYWPKIKEILSRYDILFAADEVICGFGRTSEWFGSDFYGLRPDMMTIAKGLTSGYVPMGGLIVRDEIVAVLNEGGDFNHGFTYSGHPVAAAVALENIRILREEKIVERVRSETAPYLQKRLRELSDHPLVGEVRGVGLLGAIELVKDKTTRERYTDKGAGMICRTFCFDNGLIMRAVGDTMIIAPPLVISFAQIDELVEKARTCLDLTLAVLQG | accepted 7-aminoheptanote as substrate | accepted pimelate semialdehyde as substrate | accepted pimelate semialdehyde as substrate and synthesized 7-aminoheptanoate as a reaction product | accepted 7-aminoheptanol as substrate | accept 7-oxoheptanol as substrate and form 7-aminoheptanol | –
4 | SEQ ID NO: 12: Vibrio fluvialis ω-transaminase, N-terminal HIS tagged (protein, listed as Vibrio fluvialis, N-terminal His tag, Vibrio fluvialis ω-transaminase, N-terminal HIS tagged) MNKPQSWEARAETYSLYGFTDMPSLHQRGTVVVTHGEGPYIVDVNGRRYLDANSGLWNMVAGFDHKGLIDAAKAQYERFPGYHAFFGRMSDQTVMLSEKLVEVSPFDSGRVFYTNSGSEANDTMVKMLWFLHAAEGKPQKRKILTRWNAYHGVTAVSASMTGKPYNSVFGLPLPGFVHLTCPHYWRYGEEGETEEQFVARLARELEETIQREGADTIAGFFAEPVMGAGGVIPPAKGYFQAILPILRKYDIPVISDEVICGFGRTGNTWGCVTYDFTPDAIISSKNLTAGFFPMGAVILGPELSKRLETAIEAIEEFPHGFTASGHPVGCAIALKAIDVVMNEGLAENVRRLAPRFEERLKHIAERPNIGEYRGIGFMWALEAVKDKASKTPFDGNLSVSERIANTCTDLGLICRPLGQSVVLCPPFILTEAQMDEMFDKLEKALDKVFAEVA | accepted 7-aminoheptanote as substrate | accepted pimelate semialdehyde as substrate | accepted pimelate semialdehyde as substrate and synthesized 7-aminoheptanoate as a reaction product | – | – | –
5 | SEQ ID NO: 3: Mycobacterium smegmatis carboxylate reductase, N-terminal HIS tagged (protein, listed as Mycobacterium smegmatis, N-terminal His tag, Mycobacterium smegmatis carboxylate reductase, N-terminal HIS tagged) MTSDVHDATDGVTETALDDEQSTRRIAELYATDPEFAAAAPLPAVVDAAHKPGLRLAEILQTLFTGYGDRPALGYRARELATDEGGRTVTRLLPRFDTLTYAQVWSRVQAVAAALRHNFAQPIYPGDAVATIGFASPDYLTLDLVCAYLGLVSVPLQHNAPVSRLAPILAEVEPRILTVSAEYLDLAVESVRDVNSVSQLVVFDHHPEVDDHRDALARAREQLAGKGIAVTTLDAIADEGAGLPAEPIYTADHDQRLAMILYTSGSTGAPKGAMYTEAMVARLWTMSFITGDPTPVINVNFMPLNHLGGRIPISTAVQNGGTSYFVPESDMSTLFEDLALVRPTELGLVPRVADMLYQHHLATVDRLVTQGADELTAEKQAGAELREQVLGGRVITGFVSTAPLAAEMRAFLDITLGAHIVDGYGLTETGAVTRDGVIVRPPVIDYKLIDVPELGYFSTDKPYPRGELLVRSQTLTPGYYKRPEVTASVFDRDGYYHTGDVMAETAPDHLVYVDRRNNVLKLAQGEFVAVANLEAVFSGAALVRQIFVYGNSERSFLLAVVVPTPEALEQYDPAALKAALADSLQRTARDAELQSYEVPADFIVETEPFSAANGLLSGVGKLLRPNLKDRYGQRLEQMYADIAATQANQLRELRRAAATQPVIDTLTQAAATILGTGSEVASDAHFTDLGGDSLSALTLSNLLSDFFGFEVPVGTIVNPATNLAQLAQHIEAQRTAGDRRPSFTTVHGADATEIRASELTLDKFIDAETLRAAPGLPKVTTEPRTVLLSGANGWLGRFLTLQWLERLAPVGGTLITIVRGRDDAAARARLTQAYDTDPELSRRFAELADRHLRVVAGDIGDPNLGLTPEIWHRLAAEVDLVVHPAALVNHVLPYRQLFGPNVVGTAEVIKLALTERIKPVTYLSTVSVAMGIPDFEEDGDIRTVSPVRPLDGGYANGYGNSKWAGEVLLREAHDLCGLPVATFRSDMILAHPRYRGQVNVPDMFTRLLLSLLITGVAPRSFYIGDGERPRAHYPGLTVDFVAEAVTTLGAQQREGYVSYDVMNPHDDGISLDVFVDWLIRAGHPIDRVDDYDDWVRRFETALTALPEKRRAQTVLPLLHAFRAPQAPLRGAPEPTEVFHAAVRTAKVGPGDIPHLDEALIDKYIRDLREFGLI | – | – | – | – | – | accepted N7-acetyl-7-aminoheptanoate as substrate
